± gives the uncertainty stated by the source.
B1: Ras GTPase-activating protein 1, residues 281 to 341; numbered along this chain, P20936 (parent)
chain: RRRVRAILPYTKVPDTDEISFLKGDMFIVHNELEDGWMWVTNLRTDEQGLIVEDLVEEVGR

Variants of: B1
Assay: abundance fitness (aPCA) (normalised: wild type 0, dead -1); higher = more abundant; growth selection in yeast, the domain comes from the species named
Details: Homo sapiens

Row | Variant | abundance fitness
1 | RTRVRAILPYTKVPDTDEISFLKGDMFIVHNELEDGWMWVTNLRTDEQGLIVEDLVEEVGR [R2T] | -0.128 ± 0.032
2 | RRRVRAILPYTKVPDTFEISFLKGDMFIVHNELEDGWMWVTNLRTDEQGLIVEDLVEEVGR [D17F] | -0.182 ± 0.028
3 | RRRVRAILPYTKVPDTDEISFLKGDMFIVHNELEDGWMWVTNLRTDEQGLIVEDLLEEVGR [V56L] | -0.711 ± 0.038
4 | RRRVRAILPYTKVPDTDEISFLKGDMFIVHNELEGGWMWVTNLRTDEQGLIVEDLVEEVGR [D35G] | 0.015 ± 0.03
5 | RRRVRAILPYTKVPDTDEISFLKGDMFIVHNELEDGWMWVTNLRTDEQGEIVEDLVEEVGR [L50E] | -0.395 ± 0.079
6 | RRRVRAILPYTKVPDTDEISFLKGRMFIVHNELEDGWMWVTNLRTDEQGLIVEDLVEEVGR [D25R] | -0.997 ± 0.062
7 | RRRVRAILPYTKVPDTDEISFLKGDMFIVHNELEDGWMWVTNLRTDKQGLIVEDLVEEVGR [E47K] | -0.23 ± 0.049
8 | RRRVRAILPYTKVPDRDEISFLKGDMFIVHNELEDGWMWVTNLRTDEQGLIVEDLVEEVGR [T16R] | -0.456 ± 0.029
9 | RRRVRAILFYTKVPDTDEISFLKGDMFIVHNELEDGWMWVTNLRTDEQGLIVEDLVEEVGR [P9F] | -0.73 ± 0.039
10 | RRRVRAILPYTKVPDTDEISFLKGDMFIVHNELEDGWMWVTNLRVDEQGLIVEDLVEEVGR [T45V] | -0.807 ± 0.043
11 | RRRVRAILPYTKVPDTDEISFHKGDMFIVHNELEDGWMWVTNLRTDEQGLIVEDLVEEVGR [L22H] | -0.013 ± 0.041
12 | RRRVRAILPYTKVPDTDEISFLKGDMFIVHNELEDGWMWVTCLRTDEQGLIVEDLVEEVGR [N42C] | -0.1 ± 0.03
13 | RRRVRAILPYTKVPDTDYISFLKGDMFIVHNELEDGWMWVTNLRTDEQGLIVEDLVEEVGR [E18Y] | -0.513 ± 0.037
14 | RRRVRAILPYTKVPDTDEISFLKGDMFIVHNELKDGWMWVTNLRTDEQGLIVEDLVEEVGR [E34K] | -0.026 ± 0.064
15 | RRRVRAILPYTKVPDTDEISFLKGDMFIVHNELEDGWMWVTNLRTDEQGRIVEDLVEEVGR [L50R] | 0.142 ± 0.027
16 | RRRVRAILPYTKVPDTDEISFLKGCMFIVHNELEDGWMWVTNLRTDEQGLIVEDLVEEVGR [D25C] | -0.864 ± 0.047
17 | RRRVRAILPYTKVPDTDEISFLKGDMFIVHNELEDGWMWVTNLRTDEQGLIVEDLVDEVGR [E57D] | -0.251 ± 0.053
18 | RRRVRAILHYTKVPDTDEISFLKGDMFIVHNELEDGWMWVTNLRTDEQGLIVEDLVEEVGR [P9H] | -0.157 ± 0.036
19 | RRRVRAILPYTKVPDTDEISFLKGDMFIVHNELEDGWMWVTNLRTDEQGLIVEHLVEEVGR [D54H] | -0.225 ± 0.037
20 | RRRVRAILPYTKVPDTDEISFLKGDMFIVHNELEDGWMWVTNLRTDEQGAIVEDLVEEVGR [L50A] | -0.002 ± 0.03
21 | RRRVRAILPYTKVPDTDEISFLKGDMFIVHNELEDGWMWVTNLRTDEQGWIVEDLVEEVGR [L50W] | -0.07 ± 0.051
22 | RRRVRAILPKTKVPDTDEISFLKGDMFIVHNELEDGWMWVTNLRTDEQGLIVEDLVEEVGR [Y10K] | -0.485 ± 0.15

Row | Variant | abundance fitness
23 | RRRVRAILPYTKVPDTDEISFLKGDMFKVHNELEDGWMWVTNLRTDEQGLIVEDLVEEVGR [I28K] | -0.07 ± 0.033
24 | RRRVRAILPYTKVPDTDEISFLKGQMFIVHNELEDGWMWVTNLRTDEQGLIVEDLVEEVGR [D25Q] | -0.768 ± 0.22
25 | RRRVRAILPYTKVPDTDEISFLKGDMFIVHNELEDGWMWVTNLRTDEQGLIVEDLEEEVGR [V56E] | -1.07 ± 0.15
26 | RRRVRAILPYTKVPDTDEISFWKGDMFIVHNELEDGWMWVTNLRTDEQGLIVEDLVEEVGR [L22W] | -0.102 ± 0.058
27 | RRRVRAILPYTKVPDTDEISFLKPDMFIVHNELEDGWMWVTNLRTDEQGLIVEDLVEEVGR [G24P] | -1.04 ± 0.11
28 | RRRVRAILPYTKVPDTDEISFLKGDMFIVHNELEDGWMWVWNLRTDEQGLIVEDLVEEVGR [T41W] | -0.378 ± 0.063
29 | RRRVRAILPYTKVPDTDEISFLKGDMFIVHNELEDGWMWVTSLRTDEQGLIVEDLVEEVGR [N42S] | -0.235 ± 0.026
30 | RRRVRRILPYTKVPDTDEISFLKGDMFIVHNELEDGWMWVTNLRTDEQGLIVEDLVEEVGR [A6R] | -0.908 ± 0.029
31 | RRRVRAILPYTKVPDTDEISFLKGDMFIVHNELEDGWMWVTNLRGDEQGLIVEDLVEEVGR [T45G] | -0.851 ± 0.043
32 | RRRVRAILPYTKVPDTDEISFLKGDMFIVHNELEDGWMRVTNLRTDEQGLIVEDLVEEVGR [W39R] | -0.03 ± 0.023
33 | RRRVRAILPYTKVPDTDEISFLKGDMRIVHNELEDGWMWVTNLRTDEQGLIVEDLVEEVGR [F27R] | -0.905 ± 0.054
34 | RRRVRAILPYTKVPDTDEISFLKGDMFIVHNELEDGWMWVTNLRTDEQGLIVEDLVEEGGR [V59G] | -0.176 ± 0.029
35 | RRRVRAILPYTKVPDTDEISFLKGDMFIVHNEIEDGWMWVTNLRTDEQGLIVEDLVEEVGR [L33I] | -0.075 ± 0.028
36 | RRRVRAILPYTKVPDTDEISFLKGDMFIVHNELEDGWMWVTNLRTDEQGLIVEDLVFEVGR [E57F] | -0.527 ± 0.049
37 | RRRVRAILPYTKVPDTDEISFLKGDSFIVHNELEDGWMWVTNLRTDEQGLIVEDLVEEVGR [M26S] | -0.125 ± 0.028
38 | RRRVRAILPYTKVPDTDEISFLKGDMFIVHNELEDGWMWVTNLRTDEQGLIVEDLVAEVGR [E57A] | -0.232 ± 0.048
39 | RRRVRAILPSTKVPDTDEISFLKGDMFIVHNELEDGWMWVTNLRTDEQGLIVEDLVEEVGR [Y10S] | -0.623 ± 0.042
40 | RRRVRAILPYTKVPDTDEISFLKGDMFIVHNELEDGWMWWTNLRTDEQGLIVEDLVEEVGR [V40W] | -0.917 ± 0.14
41 | RRRVRAILPYQKVPDTDEISFLKGDMFIVHNELEDGWMWVTNLRTDEQGLIVEDLVEEVGR [T11Q] | -0.097 ± 0.084
42 | MRRVRAILPYTKVPDTDEISFLKGDMFIVHNELEDGWMWVTNLRTDEQGLIVEDLVEEVGR [R1M] | 0.087 ± 0.074
43 | RRRVRAILPYTKVPDTDEISFLKGDMFIVHNELEDGWMWVTNLRTDEQGLIVPDLVEEVGR [E53P] | -0.031 ± 0.04
44 | RRRVRAILPYTKVPDTDEISFLKGDMFIVHNELEMGWMWVTNLRTDEQGLIVEDLVEEVGR [D35M] | -0.142 ± 0.069

— the Human Domainome abundance scans (Beltran et al. 2025)
